Experimental findings from patent US20220153839A1 (NBE THERAPEUTICS, published 2022) are described below.

The target in one test is T1, hROR2 (human, UniProt Q01974).
T1 construct: full length, on the cell surface; also called 63-12 / hROR2; ROR2 on T47D cells
Briefly: flow cytometry on 63-12 / hROR2 cells; anti-His Alexa Fluor 488. For orientation: Flow cytometry measures light scatter and fluorescence of single cells or particles in a stream.

Another test addresses T2, Ig (human, UniProt Q01973).
T2 construct: Ig domain of the extracellular domain; also called hFc-hROR1-Ig
As to the kind of experiment: ELISA on directly coated hFc fusion proteins of hROR1 domains; anti-His-HRP; A405. (ELISA stands for enzyme-linked immunosorbent assay.)

The target in another test is T3, Fr.
T3 construct: also called hFc-hROR1-Fr
The description is as above.

In the next test the target is T4, Kr (human, UniProt Q01973).
T4 construct: Kringle domain of the extracellular domain; also called hFc-hROR1-Kr
The description is as above.

For another test, the target named is T5, Fr + Ki (human, UniProt Q01973).
T5 construct: Frizzled and Kringle domains of the extracellular domain; also called hFc-hROR1-Fr-Ki
Described as above.

Test [1] has as its target T6, hFc-mROR1 (extracellular domain of mouse ROR1 fused to the Fc domain of human IgG1) (human; mouse, UniProt Q9Z139 30-406).
T6 construct: extracellular domain; not shown: Fc domain of human IgG1
As to the kind of experiment: ELISA; hFc fusion captured by coated anti-human IgG1 Fc; Fab 100 ng/50 µL; anti-His-HRP; A405. On the procedure: The binding of each chimeric rabbit/human Fab to hROR1 and mROR1 fused with human IgG1 Fc (hFc-hROR1 and hFc-mROR1) was analyzed by ELISA. hFc-ROR1 or hFc-mROR1 were captured by anti-human IgG1 Fc antibody immobilized on plate and then incubated with hROR1 specific Fabs comprising a His-tag via detection with mouse anti-His tag.
ELISA: For ELISA (FIG. 2), each well of a 96-well Costar 3690 plate (Corning, Corning, N.Y.) was coated with 100 ng anti-human IgG1 Fc in 25 μL coating buffer (0.1 M Na₂CO₃, 0.1 M NaHCO₃, pH 9.6) for 1 h at 37° C. After blocking with 150 μL 3% (w/v) BSA/TBS for 1 h at 37° C., hFc-hROR1 or hFc-mROR1 was captured following incubation at 100 ng/50 μL for 1 h at 37° C. Then 100 ng/50 μL of Fab was applied in each well at 37° C. 2 h later, 50 μL of a 1:1000 dilution of a mouse anti-His tag mAb conjugated to horse radish peroxidase (HRP) (R&D Systems, Minneapolis, Minn.) in 1% (w/v) BSA/TBS was used to detect the Fab. To determine the epitopes (FIG. 4), hFc fusion proteins containing different domains of hROR1 were coated directly, followed by incubation with Fab before detection by mouse anti-His tag mAb conjugated to HRP. […] The absorbance was measured at 405 nm using a SpectraMax M5 microplate reader (Molecular Devices; Sunnyvale, Calif.) and SoftMax Pro software (Molecular Devices).

For test [2], the target named is T7, hFc-hROR1 (extracellular domain of human ROR1 fused to the Fc domain of human IgG1) (human, UniProt Q01973 30-406).
T7 construct: extracellular domain; also called hFc-ROR1; not shown: Fc domain of human IgG1
As to the kind of experiment: SPR (Biacore X100); hFc-hROR1 captured by anti-human Fcγ antibody on CM5; Fab as analyte; 1:1 Langmuir fit. A digest of the protocol: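 hFc-hROR1 was captured on anti-human Fc CM5 chip in HBS-EP+ (pH 7.4), with reference flow cell subtraction and MgCl₂ regeneration. Fabs were injected at five concentrations, one in duplicate. kon/koff came from a 1:1 Langmuir fit, and Kd = koff/kon.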
On the technique in general: In SPR one partner is held on a chip, and binding of the other changes the refractive index at the surface.

Test [3] deals with T8, hFc-hROR2 (extracellular domain of human ROR2 fused to the Fc domain of human IgG1) (human, UniProt Q01974 34-403).
T8 construct: extracellular domain; not shown: Fc domain of human IgG1
As to the kind of experiment: ELISA as for hFc-hROR1; third bar series, keyed 'hFc-hROR1' a second time on the sheet, taken as hFc-hROR2 by legend paragraph 27.

T7 sequence (Q01973 30-406): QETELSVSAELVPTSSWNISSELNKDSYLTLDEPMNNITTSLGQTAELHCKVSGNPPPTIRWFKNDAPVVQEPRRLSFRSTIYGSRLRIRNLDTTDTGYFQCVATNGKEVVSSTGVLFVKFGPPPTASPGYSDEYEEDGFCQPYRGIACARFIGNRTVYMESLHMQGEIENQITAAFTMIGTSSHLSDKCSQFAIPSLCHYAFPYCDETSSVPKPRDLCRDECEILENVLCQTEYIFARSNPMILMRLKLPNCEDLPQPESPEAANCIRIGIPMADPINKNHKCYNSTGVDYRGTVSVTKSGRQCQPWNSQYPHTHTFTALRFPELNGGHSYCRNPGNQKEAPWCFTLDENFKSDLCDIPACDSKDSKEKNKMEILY
T3 sequence (chain, as listed by the source limits assumed): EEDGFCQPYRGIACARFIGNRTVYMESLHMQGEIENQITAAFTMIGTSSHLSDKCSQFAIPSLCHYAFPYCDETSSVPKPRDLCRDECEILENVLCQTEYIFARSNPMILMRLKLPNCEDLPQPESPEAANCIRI
T2 sequence (Q01973 42-147 limits assumed): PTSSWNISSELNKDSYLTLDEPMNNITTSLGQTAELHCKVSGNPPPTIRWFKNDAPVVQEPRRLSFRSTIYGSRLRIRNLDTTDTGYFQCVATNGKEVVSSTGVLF
T8 sequence (Q01974 34-403): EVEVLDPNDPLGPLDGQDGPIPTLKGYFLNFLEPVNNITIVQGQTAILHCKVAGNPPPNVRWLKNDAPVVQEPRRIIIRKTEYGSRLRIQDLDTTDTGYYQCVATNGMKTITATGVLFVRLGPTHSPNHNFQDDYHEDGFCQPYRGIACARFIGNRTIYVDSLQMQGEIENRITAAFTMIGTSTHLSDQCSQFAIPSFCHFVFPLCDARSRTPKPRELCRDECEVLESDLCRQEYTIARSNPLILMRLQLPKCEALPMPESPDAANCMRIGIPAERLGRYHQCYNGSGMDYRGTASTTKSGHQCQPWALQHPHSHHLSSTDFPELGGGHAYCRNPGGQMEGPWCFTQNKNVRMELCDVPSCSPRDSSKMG
T1 sequence (Q01974 34-943 limits assumed): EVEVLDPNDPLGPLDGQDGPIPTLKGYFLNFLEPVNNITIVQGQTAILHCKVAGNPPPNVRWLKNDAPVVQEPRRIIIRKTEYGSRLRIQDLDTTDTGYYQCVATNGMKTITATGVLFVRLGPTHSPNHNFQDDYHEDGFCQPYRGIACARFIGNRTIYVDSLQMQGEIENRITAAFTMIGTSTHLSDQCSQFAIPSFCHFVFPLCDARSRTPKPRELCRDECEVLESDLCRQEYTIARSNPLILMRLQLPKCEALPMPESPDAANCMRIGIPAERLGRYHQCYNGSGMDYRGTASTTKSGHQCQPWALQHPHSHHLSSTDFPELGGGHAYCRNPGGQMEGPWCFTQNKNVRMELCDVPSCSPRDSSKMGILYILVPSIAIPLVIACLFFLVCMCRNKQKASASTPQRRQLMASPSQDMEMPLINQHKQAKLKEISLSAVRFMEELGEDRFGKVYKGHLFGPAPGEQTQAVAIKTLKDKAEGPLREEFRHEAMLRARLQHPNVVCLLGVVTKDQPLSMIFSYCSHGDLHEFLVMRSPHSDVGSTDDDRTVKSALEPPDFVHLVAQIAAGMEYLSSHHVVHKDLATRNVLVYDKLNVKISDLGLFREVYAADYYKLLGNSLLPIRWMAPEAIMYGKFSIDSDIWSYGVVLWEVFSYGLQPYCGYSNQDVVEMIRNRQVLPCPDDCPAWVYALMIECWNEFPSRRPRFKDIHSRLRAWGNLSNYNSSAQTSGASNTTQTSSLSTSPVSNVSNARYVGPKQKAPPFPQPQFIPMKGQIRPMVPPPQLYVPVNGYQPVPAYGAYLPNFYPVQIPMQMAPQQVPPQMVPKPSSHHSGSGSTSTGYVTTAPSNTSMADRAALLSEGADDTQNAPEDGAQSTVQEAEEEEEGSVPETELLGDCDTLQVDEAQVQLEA
T6 sequence (Q9Z139 30-406): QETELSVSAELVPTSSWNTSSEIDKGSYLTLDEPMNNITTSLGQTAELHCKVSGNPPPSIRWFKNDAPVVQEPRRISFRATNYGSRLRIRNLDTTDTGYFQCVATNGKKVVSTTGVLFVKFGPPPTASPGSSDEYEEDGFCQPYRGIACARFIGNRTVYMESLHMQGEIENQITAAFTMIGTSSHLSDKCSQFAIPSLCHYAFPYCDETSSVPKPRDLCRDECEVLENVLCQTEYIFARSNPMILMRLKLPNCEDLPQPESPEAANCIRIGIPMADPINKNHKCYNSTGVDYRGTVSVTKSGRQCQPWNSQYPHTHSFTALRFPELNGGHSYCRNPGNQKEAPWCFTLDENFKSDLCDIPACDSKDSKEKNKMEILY
T4 sequence (Q01973 312-391 limits assumed): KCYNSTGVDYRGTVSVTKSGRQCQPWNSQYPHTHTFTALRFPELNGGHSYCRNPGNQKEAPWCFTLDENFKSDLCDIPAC
T5 sequence (Q01973 165-391 limits assumed): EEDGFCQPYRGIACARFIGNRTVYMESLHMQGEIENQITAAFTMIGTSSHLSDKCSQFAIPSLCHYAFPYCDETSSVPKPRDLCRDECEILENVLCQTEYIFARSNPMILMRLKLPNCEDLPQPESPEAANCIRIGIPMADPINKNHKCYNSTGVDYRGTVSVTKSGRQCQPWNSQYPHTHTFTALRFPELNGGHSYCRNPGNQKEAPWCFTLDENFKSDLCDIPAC

B1: ERR1-TOP22 chimeric rabbit/human Fab (Fab, V domains shown)
VH: QSLEESGGRLVTPGTPLTLTCTVSGFSLSSYYMSWVRQAPGKGLEWIGTISSSGSTYYASWVKGRFTISKTSTTVDLKMTSLTTEDTATYFCARDLDYDMDLWGPGTLVTVSS
VL: SYELTQLPSVSVSLGQTARITCGGNSIGSKAVHWYQQKPGLAPGLLIYNDDERPSGVPDRFSGSNSGDTATLTISGAQAGDEADYYCQLWDNNAAVFGGGTQLTVTG
notes: Chimeric rabbit/human Fab with His tag, expressed in E. coli (pET11a); lambda light chain
Take B1: the binding result with hROR2 is “no binding (tested: 1000 ng/100 µL)”; with Ig it was “no binding”; with Fr it was “no binding”; in the test with Kr it was “no binding”; in the test with Fr + Ki, “no binding”; in test [1], “binds”. For the same molecule, in test [3], the binding result is reported as “no binding (tested: 100 ng/50 µL)”. Moreover, in test [2], the Kd (usually the concentration at which binding is half-saturated) was 110 nM. Besides, in test [2], the koff (in general, the first-order rate constant of dissociation) amounted to 0.0813 s⁻¹. Moreover, the kon (as a rule, the second-order rate constant of association) in test [2] was 737000 M⁻¹ s⁻¹.
